Results on 54 variants are retold here after the RNAGym collection of RNA variant scans (doi:10.7554/elife.80360).

First the molecules themselves.
B1: Twister Ribozyme (parent)
chain: AACACUGCCAAUGCCGGUCCCAAGCCCGGAUAAAAGUGGAGGGGGCGG

The variants in this series derive from B1. The series can be described thus: self-cleavage, relative activity (ratio to wild type); higher = more cleavage; co-transcriptional.
On to AACACUGCCAAUGCCGGUCCCACGCCCGGCUAAAAGUGGAGGGGGCGG [A23C A30C], for which the self-cleavage turned out to be 0.116.

As for AACACUGCCAAUGCCGGUCCGAAGCCCGGAUAAAAGUGAAGGGGGCGG [C21G G39A], the self-cleavage worked out at 0.0549.

In the case of AACACUGCCAAUGCCGGUCCCAAGCCCGGAUAAAGGUGGAGGGCGCGG [A35G G44C], the self-cleavage is 0.821.

In the case of AACACUACCAAUGCCGGUCCCAAGCCCGGAUAAAAGUGGAGGGGGCGU [G7A G48U], the self-cleavage stood at 0.381.

AACACUGCCAAUGCCGGUGCCAAGCCCGGAUAAAAGUGGAUGGGGCGG [C19G G41U]: the self-cleavage worked out at 0.104.

As to AACACGGCCAAUGACGGUCCCAAGCCCGGAUAAAAGUGGAGGGGGCGG [U6G C14A], the self-cleavage stood at 0.313.

Consider AACACUGCCAAUGCCGGUCCCAAGCCCGGAUAAAGGUGGAGGGGGGGG [A35G C46G], for which the self-cleavage stood at 0.868.

For the variant AACACUGCCAAUGCCGGUCCUAAGCCCGGAUAAAAGCGGAGGGGGCGG [C21U U37C], the self-cleavage was determined as 0.0764.

As to AACACUGCCAAUGCCGGUCCCAAGCCCGGAUAAACGUGGAGGCGGCGG [A35C G43C], the self-cleavage stood at 0.206.

Take AACACUGCCAAUGCCGGUCCCAGGCCCGGAUAAAAGUGGAGGCGGCGG [A23G G43C]: the self-cleavage was 0.125.

On to AACACUGCCAAUGCCGGUCCCAAGCCCGGAUUAAAGUGGAGCGGGCGG [A32U G42C], for which the self-cleavage was 0.437.

In the case of AACACUGCCAAUGCCGGUCCCAAGCCCGGAUAAAAGUGGACGGGGCGA [G41C G48A], the self-cleavage is 0.234.

On to AACACUGCUAAUGCCGGUCCCAAGCCCGGAUAAAAGUGGAGGGGCCGG [C9U G45C], for which the self-cleavage is 0.157.

Consider AACACUGCCAAUGCCGGUCCCAAGCCCGGAUAAAAGUCGAGGGGGCCG [G38C G47C], for which the self-cleavage stood at 0.388.

Consider CACACUGCCAAUGCCGGUCCCAAGCCCGGAUAAAAGUGGAGUGGGCGG [A1C G42U], for which the self-cleavage is 0.169.

Consider AACACUGCCUAUGCCGGUCCCAAGCCCGGACAAAAGUGGAGGGGGCGG [A10U U31C], for which the self-cleavage came out at 0.919.

As to CAUACUGCCAAUGCCGGUCCCAAGCCCGGAUAAAAGUGGAGGGGGCGG [A1C C3U], the self-cleavage stood at 0.208.

In the case of AACACUGCCAAUGCCGGUCCCAAGCCCGGGUAUAAGUGGAGGGGGCGG [A30G A33U], the self-cleavage worked out at 0.919.

Regarding AACACUGCCAGUGCCGGUCCCAAGCCCGGAUAAAAGUGGACGGGGCGG [A11G G41C], the self-cleavage is 0.313.

For AACACUGCCAAUGCCGGUCCCUAGCCCGGCUAAAAGUGGAGGGGGCGG [A22U A30C], the self-cleavage was found to be 0.614.

Turning to AUCACUGCCAAUGCCGGUCCCAAGCCCGGAGAAAAGUGGAGGGGGCGG [A2U U31G], the self-cleavage is 0.626.

Turning to AACACUGCCAAUGCCGGUCCCAACCCCGGAUAAAAGUGGAGGGGUCGG [G24C G45U], the self-cleavage was determined as 0.119.

On to AACACUGCCAAUGUCGGUCCCAAGCCCGGAAAAAAGUGGAGGGGGCGG [C14U U31A], for which the self-cleavage turned out to be 0.92.

Turning to AACACUGCCAAUGCCGGUCCCUAGCCCGGAUAAACGUGGAGGGGGCGG [A22U A35C], the self-cleavage turned out to be 0.778.

Regarding AACACUGCCAAUGCCUGUCCCAAGCCCGGACAAAAGUGGAGGGGGCGG [G16U U31C], the self-cleavage turned out to be 0.725.

For AACACUGCCAAUGACGGUCCCACGCCCGGAUAAAAGUGGAGGGGGCGG [C14A A23C], the self-cleavage is 0.348.

For AACACUGCCAAUGCCGGUCCCACUCCCGGAUAAAAGUGGAGGGGGCGG [A23C G24U], the self-cleavage came out at 0.0714.

Consider AACACUGCCAAUGCCGGUCCCAAGGCCGGAUAAAAGUAGAGGGGGCGG [C25G G38A], for which the self-cleavage turned out to be 0.0823.

Take AAGACUGCCAAUGCCGGUCCCAAACCCGGAUAAAAGUGGAGGGGGCGG [C3G G24A]: the self-cleavage came out at 0.0502.

For AACACAGCCAAUGCCGGUACCAAGCCCGGAUAAAAGUGGAGGGGGCGG [U6A C19A], the self-cleavage was 0.0793.

Take AACACUGCCAUUGCCGGUCCCAAACCCGGAUAAAAGUGGAGGGGGCGG [A11U G24A]: the self-cleavage turned out to be 0.108.

For AACACUGCCAAUGCCGGUCCCAAGCCCGGAUAGAAGCGGAGGGGGCGG [A33G U37C], the self-cleavage worked out at 0.532.

Consider AACACUGCCAAUGCCGGUCCAAAGCCCGGAUGAAAGUGGAGGGGGCGG [C21A A32G], for which the self-cleavage was 0.0702.

With AACACUGCCAAUGCCGUUCCCAAGGCCGGAUAAAAGUGGAGGGGGCGG [G17U C25G], the self-cleavage was 0.0862.

Take AACACUGUCAAUGCCGGUCCCAAGCCCUGAUAAAAGUGGAGGGGGCGG [C8U G28U]: the self-cleavage was 0.467.

Turning to AACACUGCCAAUGCCGGUCCCAAGCCCGGAUAAAAGUGGAGUGGGCAG [G42U G47A], the self-cleavage was found to be 0.242.

On to AACACUGCCAAUGCCGGUCCCAAGCCCGGAUAAAAGUGGUGGCGGCGG [A40U G43C], for which the self-cleavage worked out at 0.114.

For UAAACUGCCAAUGCCGGUCCCAAGCCCGGAUAAAAGUGGAGGGGGCGG [A1U C3A], the self-cleavage stood at 0.222.

In the case of AACCCUGCCAAUGCCGGUUCCAAGCCCGGAUAAAAGUGGAGGGGGCGG [A4C C19U], the self-cleavage is 0.0705.

Regarding AACACUGCCAACGCCGGUCCCAAGCCCGGAUAAAAGUGGAGGGGGGGG [U12C C46G], the self-cleavage worked out at 0.705.

For the variant AACACUGCCAAUGCCGGUCCCAAGCCCGGAUAAAAGUUGAGGGGGGGG [G38U C46G], the self-cleavage amounted to 0.818.

With AACACUGCCAAUGCUGGUACCAAGCCCGGAUAAAAGUGGAGGGGGCGG [C15U C19A], the self-cleavage is 0.228.

Consider AACACUGCCAAUGCCGGUCCCAAGCCCGGAUCAAAGUGAAGGGGGCGG [A32C G39A], for which the self-cleavage came out at 0.586.

Consider AACACUGCAAAUGCCGGGCCCAAGCCCGGAUAAAAGUGGAGGGGGCGG [C9A U18G], for which the self-cleavage came to 0.159.

Consider AACACUGCCAAUGCCGAUCCCAAGCCCGGAUAAAAGUGGAGGGGUCGG [G17A G45U], for which the self-cleavage was determined as 0.147.

Turning to AACACUGCAAAUGCCGGUCCCAAGCCCGGAUUAAAGUGGAGGGGGCGG [C9A A32U], the self-cleavage stood at 0.558.

With AACACUGCCAAUGCCGGGCCCAAGCCCGGAUAAAAGUGGAGGGCGCGG [U18G G44C], the self-cleavage is 0.0756.

For the variant AACACUGCCAAUGCCGGUCCCAAGCCCGGAUCAAACUGGAGGGGGCGG [A32C G36C], the self-cleavage stood at 0.283.

With ACCACUGCCAAUGCCGGUCCCAAGCCCGGAUAAAAGUGGAGCGGGCGG [A2C G42C], the self-cleavage was determined as 0.0693.

Regarding AACACUGCCAAUGCCGGUCCCAAGCCCGGAUAAAAGCGGAGUGGGCGG [U37C G42U], the self-cleavage was 0.127.

On to AACACUGCCAAUGCCGGUCCCAAGCCCGGAUAAGAGUGGAGGAGGCGG [A34G G43A], for which the self-cleavage was determined as 0.136.

Regarding AACACUGCCAAUGCCGGUCCCAAGCCCGGAUAAAAGUGGAGGGGGAGC [C46A G48C], the self-cleavage came to 0.995.

Turning to GACACUGCUAAUGCCGGUCCCAAGCCCGGAUAAAAGUGGAGGGGGCGG [A1G C9U], the self-cleavage is 0.259.

On to AACACUGCCAAUGCCGGUCCCAAGCCCGGACAAAAGUGGACGGGGCGG [U31C G41C], for which the self-cleavage came out at 0.306.
